{"source": "patent US9540424B2", "about": "“Serum albumin binding molecules” (BRISTOL-MYERS SQUIBB COMPANY, priority 2010, dated 2017)", "molecules": {"B1": {"name": "SABA1.2: “core 1” 10Fn3 comprising an (ED)5 extension; SEQ ID NO: 90 (protein)", "chain": "MGVSDVPRDLEVVAATPTSLLISWHSYYEQNSYYRITYGETGGNSPVQEFTVPYSQTTATISGLKPGVDYTITVYAVYGSKYYYPISINYRTEIEDEDEDEDED"}}, "key": {"anesthetized rats": {"test_system": "anesthetized rats", "experiment": "Blood pressure in anesthetized rats after intravenous delivery", "format": "in vivo, rat", "details": "APLNv4 60 μg/kg, SABA-APLNv2 600 μg/kg", "excerpt": "Potential explanations for the absence of activity with the SABA-APLNv2 construct can include lessened potency due to poorer productive collision frequency, steric hindrance, or peptide-PKE annealing."}, "[1]": {"experiment": "Preliminary formulation screen and stability of SABA1.2"}, "rat serum albumin": {"molecular_target": "rat serum albumin (Rattus norvegicus, UniProt P02770)", "sequence (P02770 25-608)": "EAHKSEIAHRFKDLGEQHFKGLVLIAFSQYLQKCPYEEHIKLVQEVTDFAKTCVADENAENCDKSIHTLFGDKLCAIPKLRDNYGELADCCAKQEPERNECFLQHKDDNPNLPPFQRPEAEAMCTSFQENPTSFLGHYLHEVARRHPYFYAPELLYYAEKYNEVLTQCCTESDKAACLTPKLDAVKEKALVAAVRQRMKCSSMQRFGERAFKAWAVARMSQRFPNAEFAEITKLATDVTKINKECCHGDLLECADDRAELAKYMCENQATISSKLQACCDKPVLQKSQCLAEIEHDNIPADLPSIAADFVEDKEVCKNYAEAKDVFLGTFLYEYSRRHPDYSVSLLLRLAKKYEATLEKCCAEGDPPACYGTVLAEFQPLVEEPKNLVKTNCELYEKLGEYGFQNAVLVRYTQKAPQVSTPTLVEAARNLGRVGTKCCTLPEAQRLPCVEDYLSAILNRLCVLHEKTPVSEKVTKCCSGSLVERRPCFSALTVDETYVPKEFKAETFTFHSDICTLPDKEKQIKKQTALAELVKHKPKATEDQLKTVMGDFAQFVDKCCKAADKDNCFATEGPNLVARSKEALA", "experiment": "SABA1.2 binding to rat serum albumin", "details": "up to 1 μM"}, "HSA": {"molecular_target": "HSA (Homo sapiens, UniProt P02768)", "protocol": "(§1) In addition, binding to albumin was carried out under various pH conditions ranging from pH 5.5 to pH 7.4."}, "MuSA": {"molecular_target": "MuSA (Mus musculus, UniProt P07724)", "sequence (P07724 25-608)": "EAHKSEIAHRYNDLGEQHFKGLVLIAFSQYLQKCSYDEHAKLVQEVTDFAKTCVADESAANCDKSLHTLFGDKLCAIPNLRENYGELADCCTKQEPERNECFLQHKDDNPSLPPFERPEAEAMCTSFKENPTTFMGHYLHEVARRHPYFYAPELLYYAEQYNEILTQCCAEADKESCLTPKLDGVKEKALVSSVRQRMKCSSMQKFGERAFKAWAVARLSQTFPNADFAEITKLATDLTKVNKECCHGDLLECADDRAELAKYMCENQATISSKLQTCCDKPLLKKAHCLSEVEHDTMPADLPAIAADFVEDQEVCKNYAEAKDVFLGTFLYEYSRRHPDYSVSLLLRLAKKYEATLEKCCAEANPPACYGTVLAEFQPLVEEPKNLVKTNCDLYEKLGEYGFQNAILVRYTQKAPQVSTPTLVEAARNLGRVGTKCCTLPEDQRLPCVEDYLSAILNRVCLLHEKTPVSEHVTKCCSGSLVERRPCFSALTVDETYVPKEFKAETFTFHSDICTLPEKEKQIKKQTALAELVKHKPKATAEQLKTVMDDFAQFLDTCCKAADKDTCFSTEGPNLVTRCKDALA", "experiment": "Biacore kinetics of SABAs on immobilized serum albumin: MuSA", "format": "binding", "details": "HBS-P buffer"}, "[2]": {"details": "cynomolgus monkey, in vivo", "protocol": "The pharmacokinetics and bioavailability were also evaluated in a three-week, single-dose pre-toxicology study that included both intravenous and subcutaneous administration arms.\nNon-compartmental analyses using WinNonlin software were performed to evaluate pharmacokinetic parameters."}, "RhSA": {"molecular_target": "RhSA (Macaca mulatta, UniProt Q28522)", "sequence (Q28522 17-600)": "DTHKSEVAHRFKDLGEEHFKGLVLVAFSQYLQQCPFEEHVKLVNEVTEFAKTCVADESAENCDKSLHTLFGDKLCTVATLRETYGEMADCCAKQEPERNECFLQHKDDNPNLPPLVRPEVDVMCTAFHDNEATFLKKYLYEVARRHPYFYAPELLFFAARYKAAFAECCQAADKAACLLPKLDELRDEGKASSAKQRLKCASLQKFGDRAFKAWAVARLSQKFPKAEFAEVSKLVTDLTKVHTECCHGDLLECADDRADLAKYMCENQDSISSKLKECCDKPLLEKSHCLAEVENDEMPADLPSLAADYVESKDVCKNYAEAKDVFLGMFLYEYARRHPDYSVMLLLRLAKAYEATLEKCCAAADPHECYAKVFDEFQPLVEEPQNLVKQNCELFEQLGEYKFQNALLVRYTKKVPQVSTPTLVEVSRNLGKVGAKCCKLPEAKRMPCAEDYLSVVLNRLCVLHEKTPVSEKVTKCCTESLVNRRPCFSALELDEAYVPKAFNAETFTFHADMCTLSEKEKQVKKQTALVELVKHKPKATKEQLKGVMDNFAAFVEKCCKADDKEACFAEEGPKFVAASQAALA", "experiment": "Biacore kinetics of SABAs on immobilized serum albumin: RhSA", "format": "binding, rhesus", "details": "Rhesus albumin", "protocol": "as §1"}, "[3]": {"experiment": "NOEL of SABA1.2 in cyno monkeys", "format": "in vivo", "details": "IV, dosed twice weekly for 5 doses", "method": "The NOEL (No observed effective level) in cyno monkeys is 30 mg/kg IV when dosed twice weekly for 5 doses. […] Thus, ample safety factors have been taken into consideration for the dosing levels in this study.”"}}, "note": "“Also recorded” adds a separate entry of the source. Like-named read-outs stand apart in the source and are kept apart here.", "data": [{"molecule": "APLNv4: Apelin peptide variant fused in SABA-APLNv2 (QRPRLSHKGPMPF)", "values": [{"measurement": "effect on blood pressure", "setting": "anesthetized rats", "value": "robust hypotensive effect"}]}, {"molecule": "B1", "values": [{"measurement": "protein melting temperature by DSC", "setting": "[1]; 10 mM succinic acid, 8% sorbitol, 5% glycine, pH 6.0, 1.25 mg/mL protein", "value": 75, "unit": "°C"}, {"measurement": "level of aggregation after one month", "setting": "[1]; 4° C.", "value": 1.6, "unit": "%"}, {"measurement": "solubility in the formulation", "setting": "[1]; 4° C. and ambient temperature, no precipitation or increase in aggregation", "value": "at least 20 mg/mL"}, {"measurement": "level of aggregation after one month", "setting": "[1]; 25° C.", "value": 3.8, "unit": "%"}, {"measurement": "initial aggregate level", "setting": "[1]; formulation pH 6.0, 5 mg/mL", "value": 1.2, "unit": "%"}, {"measurement": "interaction with rat serum albumin", "setting": "rat serum albumin", "value": "No measurable interaction"}, {"measurement": "kd (1/s)", "setting": "HSA; Human albumin, 25° C., HBS-P buffer", "value": "4.43 ± 0.65E−04 1/s"}, {"measurement": "kd", "setting": "HSA; Human albumin, 37° C., HBS-P buffer", "value": 0.000815, "unit": "s⁻¹"}, {"measurement": "kd", "setting": "HSA; Human albumin, pH 5.5, MES buffer", "value": 0.00027, "unit": "s⁻¹"}, {"measurement": "kd", "setting": "HSA; Human albumin, pH 7.4, MES buffer", "value": 0.000388, "unit": "s⁻¹"}, {"measurement": "ka", "setting": "HSA; pH 5.5", "value": 9440, "unit": "M⁻¹ s⁻¹"}, {"measurement": "ka", "setting": "HSA; pH 7.4", "value": 9260, "unit": "M⁻¹ s⁻¹"}, {"measurement": "binding to Mouse albumin", "setting": "MuSA; 25° C., up to 1 μM", "value": "No measurable interaction; also recorded: no observable binding"}, {"measurement": "binding to Mouse albumin", "setting": "MuSA; 37° C.", "value": "no observable binding"}, {"measurement": "Bioavailability (F)", "setting": "[2]; 1 mg/kg", "value": 0.7}, {"measurement": "AUCall (hr * nmol/L)", "setting": "[2]; iv, 10 mg/kg", "value": "5,609,457 hr * nmol/L"}, {"measurement": "Vz", "setting": "[2]; iv, 10 mg/kg", "value": 0.03, "unit": "L/kg"}, {"measurement": "beta T1/2", "setting": "[2]; iv, 10 mg/kg", "value": 143, "unit": "h"}, {"measurement": "AUCall (hr * nmol/L)", "setting": "[2]; sc, 1 mg/kg", "value": "251,339 hr * nmol/L"}, {"measurement": "Vz", "setting": "[2]; sc, 1 mg/kg", "value": 0.062, "unit": "L/kg"}, {"measurement": "beta T1/2", "setting": "[2]; sc, 1 mg/kg", "value": 134, "unit": "h"}, {"measurement": "ka", "setting": "RhSA; 25° C., HBS-P buffer", "value": 6600, "unit": "M⁻¹ s⁻¹"}, {"measurement": "kd (1/s)", "setting": "RhSA; 25° C., HBS-P buffer", "value": "3.78 ± 0.45E−03 1/s"}, {"measurement": "ka", "setting": "RhSA; 37° C., HBS-P buffer", "value": 18900, "unit": "M⁻¹ s⁻¹"}, {"measurement": "kd", "setting": "RhSA; 37° C., HBS-P buffer", "value": 0.0185, "unit": "s⁻¹"}, {"measurement": "ka", "setting": "RhSA; pH 5.5, MES buffer", "value": 7570, "unit": "M⁻¹ s⁻¹"}, {"measurement": "kd", "setting": "RhSA; pH 5.5, MES buffer", "value": 0.00272, "unit": "s⁻¹"}, {"measurement": "ka", "setting": "RhSA; pH 7.4, MES buffer", "value": 6160, "unit": "M⁻¹ s⁻¹"}, {"measurement": "kd", "setting": "RhSA; pH 7.4, MES buffer", "value": 0.00295, "unit": "s⁻¹"}, {"measurement": "NOEL (No observed effective level)", "setting": "[3]", "value": 30, "unit": "mg/kg"}]}]}
